Data reported in PMC4349727, “Redox-dependent chaperone/peroxidase function of 2-Cys-Prx from the cyanobacterium Anabaena PCC7120: role in oxidative stress tolerance” (BMC Plant Biology, 2015).
pKd: −log10 of the molar value. Each block holds one compound with its values, some of them ahead of it.

Key:
[1] = target: Alr4641 (typical 2-Cys-Prx of Anabaena PCC7120), His-tagged, wild type (Anabaena PCC7120); assay: SPR; Autolab Esprit; about 250 response units of Alr4641 immobilised on bare gold chip by EDC-NHS; NTRC injected at 4.33, 8.66, 10.39 and 12.99 μM, 33.3 μL/min, 300 s; 20°C; 10 mM HEPES, 100 mM NaCl, pH 7.5; equilibrium analysis
[2] = target: Alr4641 (typical 2-Cys-Prx of Anabaena PCC7120), His-tagged, wild type (Anabaena PCC7120); assay: SDS-PAGE under reducing or non-reducing conditions; 12% SDS-PAGE of purified proteins with or without DTT (10 mM); shows the inter-subunit disulfide dimer
Alr4641 (2-Cys-Prx) = target: T1, Alr4641 (2-Cys-Prx) (Nostoc sp. PCC 7120 = FACHB-418, UniProt A0ACD7RYC4); assay: NTRC-dependent peroxidase assay, NADPH oxidation at […] nm; format: biochemical; conditions: 100 uM peroxide; NTRC of Anabaena PCC7120 as reductant with NADPH
T1 construct: full length, 203 residues, 23 kD, N-terminal His-tag (pET16b), expressed in E. coli BL21pLysS; decamer/dodecamer
T1 sequence (A0ACD7RYC4 1-203): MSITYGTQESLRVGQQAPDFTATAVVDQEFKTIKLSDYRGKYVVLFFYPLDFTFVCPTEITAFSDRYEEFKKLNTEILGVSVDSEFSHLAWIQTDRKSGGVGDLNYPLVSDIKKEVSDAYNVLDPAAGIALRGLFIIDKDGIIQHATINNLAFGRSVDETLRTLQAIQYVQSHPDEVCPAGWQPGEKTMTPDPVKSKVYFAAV

[3] = target: Alr4641, endogenous in wild-type Anabaena PCC7120 (Anabaena PCC7120 (endogenous)); assay: non-reducing SDS-PAGE with Western blot; cell free extracts of Anabaena (wild type after MV, H2O2, t-Bx or γ-radiation and recovery; An4641+; AnC56S+) on non-reducing SDS-PAGE, probed with Alr4641 antiserum; shows the disulfide dimer
[4] = target: Alr4641 over-expressed in Anabaena PCC7120 (strain An4641+) (Anabaena PCC7120); assay: as above

pKd [1]: 5.98
Compound: NADPH-dependent thioredoxin reductase (NTRC) from Anabaena PCC7120, His-tagged (enzyme)

stoichiometry N [2]: 2
Compound: Alr4641 (typical 2-Cys-Prx of Anabaena PCC7120), His-tagged, wild type (enzyme)

Compound: CC(C)(OO)c1ccccc1 [Cux, cumeme hydroperoxide]
NTRC-dependent peroxidase assay, NADPH oxidation at 340 nm (Alr4641 (2-Cys-Prx)): best activity was observed with H2O2 followed by t-butyl hydroperoxide and cumeme hydroperoxide

stoichiometry N [3]: 2
Compound: Alr4641, endogenous in wild-type Anabaena PCC7120 (enzyme)

Compound: CC(C)(C)OO [t-Bx, t-butyl hydroperoxide]
NTRC-dependent peroxidase assay, NADPH oxidation at 340 nm (Alr4641 (2-Cys-Prx)): best activity was observed with H2O2 followed by t-butyl hydroperoxide and cumeme hydroperoxide

stoichiometry N [4]: 2
Compound: Alr4641 over-expressed in Anabaena PCC7120 (strain An4641+) (enzyme)
